# Laboratory results from publication PMC5220320 (Scientific Reports, 2017).
# T1: NDH-2 (type II NADH:quinone oxidoreductase) (Caldalkalibacillus thermarum, UniProt F5L3B8, G164E)
# T1 construct: gene CathTA2_0279
# T1 sequence (F5L3B8 1-399 G164E): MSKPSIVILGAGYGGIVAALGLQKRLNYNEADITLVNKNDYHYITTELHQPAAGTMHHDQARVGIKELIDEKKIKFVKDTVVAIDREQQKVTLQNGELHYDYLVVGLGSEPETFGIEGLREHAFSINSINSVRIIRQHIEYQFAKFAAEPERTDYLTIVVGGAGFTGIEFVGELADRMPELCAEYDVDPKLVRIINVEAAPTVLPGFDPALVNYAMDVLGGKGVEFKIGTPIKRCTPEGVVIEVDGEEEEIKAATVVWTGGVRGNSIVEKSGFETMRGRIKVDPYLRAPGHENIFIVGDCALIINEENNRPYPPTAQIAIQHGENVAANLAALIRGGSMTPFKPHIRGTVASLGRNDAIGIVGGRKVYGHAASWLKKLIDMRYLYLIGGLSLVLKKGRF
# T2: NDH-2 (type II NADH:quinone oxidoreductase) (Caldalkalibacillus thermarum, UniProt F5L3B8, I379E)
# T2 construct: gene CathTA2_0279
# T2 sequence (F5L3B8 1-399 I379E): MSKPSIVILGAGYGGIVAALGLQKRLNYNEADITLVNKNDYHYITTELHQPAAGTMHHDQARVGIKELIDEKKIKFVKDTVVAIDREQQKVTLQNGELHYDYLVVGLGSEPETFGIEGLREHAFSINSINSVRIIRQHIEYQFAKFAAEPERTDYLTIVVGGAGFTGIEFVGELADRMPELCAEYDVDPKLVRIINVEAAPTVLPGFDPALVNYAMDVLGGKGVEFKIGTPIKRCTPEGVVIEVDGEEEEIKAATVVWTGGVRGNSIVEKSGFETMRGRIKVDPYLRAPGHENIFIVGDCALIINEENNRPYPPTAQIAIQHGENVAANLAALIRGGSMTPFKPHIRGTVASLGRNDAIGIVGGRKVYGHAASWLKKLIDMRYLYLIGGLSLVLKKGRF
# T3: NDH-2 (type II NADH:quinone oxidoreductase) (Caldalkalibacillus thermarum, UniProt F5L3B8)
# T3 construct: gene CathTA2_0279
# T3 sequence (F5L3B8 1-399): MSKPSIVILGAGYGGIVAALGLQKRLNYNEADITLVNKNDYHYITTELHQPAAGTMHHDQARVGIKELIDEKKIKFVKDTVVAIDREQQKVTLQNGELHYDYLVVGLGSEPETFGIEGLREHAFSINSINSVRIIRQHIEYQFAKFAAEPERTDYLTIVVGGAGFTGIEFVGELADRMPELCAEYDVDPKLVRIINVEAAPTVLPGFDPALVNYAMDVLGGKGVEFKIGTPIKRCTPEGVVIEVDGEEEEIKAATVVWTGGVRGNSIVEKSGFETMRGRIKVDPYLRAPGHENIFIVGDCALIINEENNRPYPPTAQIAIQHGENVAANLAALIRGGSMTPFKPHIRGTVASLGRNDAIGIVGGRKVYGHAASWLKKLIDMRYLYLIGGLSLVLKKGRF
# What was measured:
# [1] = biological target: T1, NDH-2 (type II NADH:quinone oxidoreductase); assay: steady-state kinetics (KM); compromised binding, no CTC; format: biochemical
# [2] = biological target: T2, NDH-2 (type II NADH:quinone oxidoreductase); assay: CTC formation by absorbance and stopped-flow flavin reduction; format: binding
# [3] = biological target: T3, NDH-2 (type II NADH:quinone oxidoreductase); assay: spectroscopic titration of reduced enzyme (CTC), upper limit for KD; co-crystal structure at […] Å; format: binding
# CC1=CC(=O)c2ccccc2C1=O = assay: steady-state kinetics (KM); compromised binding; format: biochemical, Caldalkalibacillus thermarum; conditions: FAD quinone-binding site; clashes with the side chain of E379
# purified protein [4] = substrate: CC(=O)c1ccc[n+]([C@@H]2O[C@H](COP(=O)([O-])OP(=O)(O)OC[C@H]3O[C@@H](n4cnc5c(N)ncnc54)[C@H](O)[C@@H]3O)[C@@H](O)[C@H]2O)c1; assay: purified protein; conditions: FAD competes with NAD+ for the reduced flavin
# purified protein [5] = substrate: NC(=O)C1=CN([C@@H]2O[C@H](COP(=O)(O)OP(=O)(O)OC[C@H]3O[C@@H](n4cnc5c(N)ncnc54)[C@H](O)[C@@H]3O)[C@@H](O)[C@H]2O)C=CC1; assay: purified protein; conditions: FAD nucleotide-binding site, nicotinamide ring juxtaposed over the flavin; E198 hydrogen bonds to the adenine ribose; F165 moves
# [6] = substrate: CC1=CC(=O)c2ccccc2C1=O; assay: steady-state kinetics (KM) and stopped-flow flavin reoxidation; format: biochemical, Caldalkalibacillus thermarum; conditions: FAD quinone-binding site on the opposite face of the flavin to the nucleotide-binding site; I379 at the entry
molecule,measurement,setting,value
NC(=O)C1=CN([C@@H]2O[C@H](COP(=O)(O)OP(=O)(O)OC[C@H]3O[C@@H](n4cnc5c(N)ncnc54)[C@H](O)[C@@H]3O)[C@@H](O)[C@H]2O)C=CC1 [NADH],Km,[1],> 1000 µM
same,CTC formation by absorbance and stopped-flow flavin reduction,[2],"When oxidized I379E reacts with NADH, the flavin is reduced and a CTC forms, as in the WT enzyme"
NC(=O)c1ccc[n+]([C@@H]2O[C@H](COP(=O)([O-])OP(=O)(O)OC[C@H]3O[C@@H](n4cnc5c(N)ncnc54)[C@H](O)[C@@H]3O)[C@@H](O)[C@H]2O)c1 [NAD^+],Kd,[3],< 2000 nM
NDH-2 (type II NADH:quinone oxidoreductase) (Caldalkalibacillus thermarum TA2.A1; I379E),Km,CC1=CC(=O)c2ccccc2C1=O,780 µM
NDH-2 (type II NADH:quinone oxidoreductase) (Caldalkalibacillus thermarum TA2.A1) (protein) MSKPSIVILGAGYGGIVAALGLQKRLNYNEADITLVNKNDYHYITTELHQPAAGTMHHDQARVGIKELIDEKKIKFVKDTVVAIDREQQKVTLQNGELHYDYLVVGLGSEPETFGIEGLREHAFSINSINSVRIIRQHIEYQFAKFAAEPERTDYLTIVVGGAGFTGIEFVGELADRMPELCAEYDVDPKLVRIINVEAAPTVLPGFDPALVNYAMDVLGGKGVEFKIGTPIKRCTPEGVVIEVDGEEEEIKAATVVWTGGVRGNSIVEKSGFETMRGRIKVDPYLRAPGHENIFIVGDCALIINEENNRPYPPTAQIAIQHGENVAANLAALIRGGSMTPFKPHIRGTVASLGRNDAIGIVGGRKVYGHAASWLKKLIDMRYLYLIGGLSLVLKKGRF,Km,purified protein [4],7.2 µM
same,Km,purified protein [5],29 µM
same,Km,[6],34 µM
